In paper doi:10.1101/2021.10.18.464838 (2021):
Where no end group is shown, it is not given here.

Assays:
[1] = molecular target: DnaJB4 (recombinant, human, full length, wild type) (human, UniProt Q9UDY4 1-337); assay: FP
[2] = molecular target: T1, CHIP (recombinant human) (human, UniProt Q9UNE7 1-303); assay: FP
T1 chain: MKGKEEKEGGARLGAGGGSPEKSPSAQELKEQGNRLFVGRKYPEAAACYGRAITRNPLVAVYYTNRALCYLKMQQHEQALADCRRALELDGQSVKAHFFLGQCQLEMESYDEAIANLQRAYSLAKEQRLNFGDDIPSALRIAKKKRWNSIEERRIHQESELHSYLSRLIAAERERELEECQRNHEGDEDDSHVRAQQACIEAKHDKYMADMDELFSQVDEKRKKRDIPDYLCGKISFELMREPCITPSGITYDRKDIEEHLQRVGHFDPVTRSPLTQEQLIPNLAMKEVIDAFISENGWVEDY

Sequence of DnaJB4 (recombinant, human, full length, wild type) (Q9UDY4 whole entry): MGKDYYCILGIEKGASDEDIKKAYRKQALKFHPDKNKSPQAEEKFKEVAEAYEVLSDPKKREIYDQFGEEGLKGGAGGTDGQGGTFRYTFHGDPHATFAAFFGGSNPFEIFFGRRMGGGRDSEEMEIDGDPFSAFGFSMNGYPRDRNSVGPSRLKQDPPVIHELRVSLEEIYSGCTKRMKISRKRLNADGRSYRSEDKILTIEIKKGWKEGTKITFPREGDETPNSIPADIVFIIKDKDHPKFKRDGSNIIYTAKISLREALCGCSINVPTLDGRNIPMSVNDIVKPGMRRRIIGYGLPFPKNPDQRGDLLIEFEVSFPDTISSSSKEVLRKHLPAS

Kd [1]: 1.68 µM
Kd [2]: 5.04 µM
B1: Hsp72 phosphomimetic T636E tracer FITC-Ahx-GSGPEIEEVD (peptide)
peptide: GSGPEIEEVD-OH
modifications: not fully specified (N-terminus); printed as FITC-Ahx-GSGPEIEEVD
